Series [1] in a line: KARI assay in 100-μL scale to measure pH optimum. The format is biochemical. The note with it: pH 6.0-8.5, NADPH. As for the experimental part:
Assay buffers were prepared containing 100 mM potassium phosphate with pH values ranging from 6.0-8.5 in 0.5-steps, 1 mM DTT, 10 mM MgCl2, 2.5 mM acetolactate, and 200 μM NADPH (final concentrations). Ten μL purified enzyme were placed into a flat-bottom assay plate (Evergreen Scientific). The reactions were initiated by addition of 90 μL assay buffer. The change in absorbance at 340 nm was monitored over 1 min in a plate reader (TECAN).

Series [2] can be described thus: KARI assay in 1-mL scale to measure NADH KM value (Example 5). The format is biochemical. Particulars: for Km: Example 5, pH 7.0. Here is the method: (§1) KARI activity was assayed kinetically by monitoring the decrease in NADPH or NADH concentration by measuring the change in absorbance at 340 nm. An assay buffer was prepared containing 100 mM potassium phosphate pH 7.0, 1 mM DTT, 2.5 mM (S)-2-acetolactate, and 10 mM MgCl2 (final concentrations in the 1-mL assay). Twenty μL purified enzyme and 960 μL of the assay buffer were placed into a 1-mL cuvette. The reaction was initiated by addition of 20 μL NADPH or NADH (200 μM final concentration) for a general activity assay. Michaelis-Menten constants for the cofactors were determined with varying concentrations of NADPH or NADH (200-12 μM final).

The nature of series [3]: KARI assay in 1-mL scale to measure NADPH KM value (Example 5). It is filed as biochemical. Particulars: for Km: Example 5, pH 7.0. Here is the method:
as §1

Series [4] in a line: KARI assay in 100-μL scale to measure acetolactate KM value. The format is biochemical. The note with it: for Km: NADPH, pH 7.0, read-out: KM (S)-2-acetolactate. As for the experimental part: An assay buffer was prepared containing 100 mM potassium phosphate pH 7.0, 1 mM DTT, 10 mM MgCl2, and 200 μM NADPH (final concentrations). Five μL purified enzyme and 5 μL of varying concentrations of acetolactate (8-0.125 mM final) were placed into a flat-bottom assay plate (Evergreen Scientific). The reactions were initiated by addition of 90 μL assay buffer. The change in absorbance at 340 nm was monitored over 1 min in a plate reader (TECAN).

Series [5] deals with S. cerevisiae host strain GEVO3956. The series can be described thus: Shake flask isobutanol fermentations with KARI as limiting pathway enzyme. It is filed as cell-based. The note with it: mean of 3 experiments. The source says: In this example, a series of KARI genes were individually expressed from a yeast promoter in conjunction with other components of an isobutanol production pathway in yeast such that KARI was the limiting enzyme in the pathway and the amount of isobutanol produced during a fermentation was dependent on the KARI activity level. In this system, the S. cerevisiae host strain GEVO3956 was used to produce isobutanol when supplied with an isobutanol production pathway plasmid expressing ALS and KIVD, and a low copy number plasmid expressing KARI, DHAD, and ADH enzymes.
Shake flask fermentations using GEVO3956 carrying these individual plasmids were performed together with GEVO3956 carrying pGV3022 (derived from pGV3009 but containing the E. coli ilvC-coSc gene expressed from the Sc_PDC1^−350 promoter) and GEVO3956 carrying pGV3012 (equivalent to pGV3009 lacking the Sc_PDC1^−350 promoter and KARI gene) for comparison of isobutanol production. The shake flask fermentations were performed as follows. The strains were grown overnight in 3 mL of YPD medium containing 1% v/v ethanol and 0.1 g/L G418 at 30° C. and 250 rpm. The OD600 of these cultures was determined after overnight growth and the appropriate amount of culture was added to 50 mL of YP medium containing 5% w/v glucose, 1% v/v ethanol. 200 mM MES, pH 6.5, and 0.1 g/L G418 to obtain an OD600 of 0.1 in 250 mL baffled flasks with sleeve caps. Cultures were incubated at 30° C. and 250 rpm overnight. The OD600 of these cultures was determined after overnight growth and the appropriate amount of culture to total 250 ODs was added to 50 mL Falcon tubes and centrifuged at 2700×g for 5 minutes. The supernatant was removed and cells were resuspended in 50 mL of YP medium containing 8% w/v glucose, 1% v/v ethanol, 200 mM MES, pH 6.5, and 0.1 g/L G418 to obtain a final OD600 of 5 OD per ml. At t=0 the OD600 of each flask was determined. The fermentation cultures were incubated at 30° C. and 250 rpm in non-baffled 250 mL flasks with vented screw cap tops. After 24, 48 and 72 hours of incubation, 1.5 mL of culture was removed into 1.5 mL microcentrifuge tubes from each culture. OD600 values were determined from the samples and the remainder of each sample was centrifuged for 10 min at 14,000 rpm in a microcentrifuge and 1 mL of the supernatant was removed to be submitted for gas chromatographic analysis. Analysis of volatile organic compounds, including ethanol and isobutanol, was performed on an Agilent 6890 gas chromatograph (GC) fitted with a 7683B liquid autosampler, a split/splitless injector port, a ZB-FFAP column (Phenomenex 30 m length, 0.32 mm ID, […] film thickness) connected to a flame ionization detector (FID). […]

Series [6] can be described thus: KARI assay in 100-μL scale to measure MgCl2 KM value. The format is biochemical. Particulars: for Km: NADPH, pH 7.0, read-out: KM Mg^2+. Here is the method:
An assay buffer was prepared containing 100 mM potassium phosphate pH 7.0, 1 mM DTT, 2.5 mM (S)-2-acetolactate, and 200 μM NADPH (final concentrations). Five μL purified enzyme and 5 μL of varying concentrations of MgCl2 were placed into a flat-bottom assay plate (Evergreen Scientific). The reactions were initiated by addition of 90 μL assay buffer. The change in absorbance at 340 nm was monitored over 1 min in a plate reader (TECAN).

B1: E. coli IlvC: Escherichia coli ketol-acid reductoisomerase (ilvC), wild type (protein, UniProt P05793 2-491, looked up)
Ketol-acid reductoisomerase …: ANYFNTLNLRQQLAQLGKCRFMGRDEFADGASYLQGKKVVIVGCGAQGLNQGLNMRDSGLDISYALRKEAIAEKRASWRKATENGFKVGTYEELIPQADLVINLTPDKQHSDVVRTVQPLMKDGAALGYSHGFNIVEVGEQIRKDITVVMVAPKCPGTEVREEYKRGFGVPTLIAVHPENDPKGEGMAIAKAWAAATGGHRAGVLESSFVAEVKSDLMGEQTILCGMLQAGSLLCFDKLVEEGTDPAYAEKLIQFGWETITEALKQGGITLMMDRLSNPAKLRAYALSEQLKEIMAPLFQKHMDDIISGEFSSGMMADWANDDKKLLTWREETGKTAFETAPQYEGKIGEQEYFDKGVLMIAMVKAGVELAFETMVDSGIIEESAYYESLHELPLIANTIARKRLYEMNVVISDTAEYGNYLFSYACVPLLKPFMAELQPGDLGKAIPEGAVDNGQLRDVNEAIRSHAIEQVGKKLRGYMTDMKRIAVAG
For B1, in series [1], the “optimum pH” value is given as 7.5. Also, in series [2], the “NADH KM, times higher than NADH KM for S. exigua KARI” value is given as 22 fold and the Michaelis-Menten constant (Km) stood at 1000 µM. The Km in series [2] (listed as E. coli KARI) is approximately 1000 µM. Moreover, in series [3], the “NADPH KM, times higher than NADPH KM for S. exigua KARI” value is approximately 20 fold and the Michaelis-Menten constant (Km) was found to be 20 ± 3 µM. In series [4], the “KM for acetolactate, times higher than KM of S. exigua KARI” value is listed as 32 fold; the “KM, fold higher than the Ki for R-DHIV” value was 3 fold; the Michaelis constant (Km) was 300 ± 100 µM. In addition, in series [5], the “48 h isobutanol Titer” value was 3.93 ± 1.16 g/L and the “72 h isobutanol Titer” value is reported as 4.72 ± 0.90 g/L. In addition, in series [6], the “KM for Mg^2+, times higher than KM of S. exigua KARI” value stood at 2.9 fold and the Michaelis-Menten constant (Km) is 2000 ± 500 µM.

B2: Se1_KARI: Slackia exigua (ATCC 700122) ketol-acid reductoisomerase, wild type, SEQ ID NO: 2 (protein, listed as Slackia exigua)
chain: MSVKTKEKEMAVTILYEQDVDPKVIQGLKVGIIGYGSQGHAHALNLMDSGVDVRVGLREGSSSWKTAEEAGLKVTDMDTAAEEADVIMVLVPDEIQPKVYQEHIAAHLKAGNTLAFAHGFNIHYGYIVPPEDVNVIMCAPKGPGHIVRRQFTEGSGVPDLACVQQDATGNAWDIVLSYCWGVGGARSGIIKATFAEETEEDLFGEQAVLCGGLVELVKAGFETLTEAGYPPELAYFECYHEMKMIVDLMYESGIHFMNYSISNTAEYGEYYAGPKVINEQSREAMKEILKRIQDGSFAQEFVDDCNNGHKRLLEQREAINTHPIETTGAQIRSMFSWIKKED
On to B2, for which the “optimum pH” value was 7 in series [1] and “approximately 7.0” in series [1] (listed as S. exigua KARI). For the same molecule, the “kcat with NADH” value in series [2] (Example 5) is 0.4 s⁻¹. In addition, the Michaelis constant (Km) in series [2] was 45 ± 10 µM; in series [3], less than 1 µM; in series [4], 170 µM; in series [6] it was 700 µM. The “KM, fold lower than the Ki for R-DHIV” value in series [4] turned out to be 10 fold. Further, in series [5], the “48 h isobutanol Titer” value is reported as 2.82 ± 0.11 g/L. In series [5], the “72 h isobutanol Titer” value is 4.40 ± 0.34 g/L.

A word on the Km: it is the substrate concentration at which the rate is half of its maximum.

The record behind these values is patent publication US20140295512A1, “Ketol-Acid Reductoisomerases With Improved Performance Properties” (CALIFORNIA INSTITUTE OF TECHNOLOGY, priority 2011, published 2014).
